Laboratory results reported in US20250042943A1, “FAP DETECTION” (THE UNIVERSITY COURT OF THE UNIVERSITY OF EDINBURGH, priority 2021, published 2025).

Columns and labels:
rhFAP = molecular target: T1, rhFAP (Homo sapiens, UniProt Q12884); test: Probe cleavage by recombinant human FAP (fluorescence read); format: biochemical
T1 sequence (Q12884 1-760): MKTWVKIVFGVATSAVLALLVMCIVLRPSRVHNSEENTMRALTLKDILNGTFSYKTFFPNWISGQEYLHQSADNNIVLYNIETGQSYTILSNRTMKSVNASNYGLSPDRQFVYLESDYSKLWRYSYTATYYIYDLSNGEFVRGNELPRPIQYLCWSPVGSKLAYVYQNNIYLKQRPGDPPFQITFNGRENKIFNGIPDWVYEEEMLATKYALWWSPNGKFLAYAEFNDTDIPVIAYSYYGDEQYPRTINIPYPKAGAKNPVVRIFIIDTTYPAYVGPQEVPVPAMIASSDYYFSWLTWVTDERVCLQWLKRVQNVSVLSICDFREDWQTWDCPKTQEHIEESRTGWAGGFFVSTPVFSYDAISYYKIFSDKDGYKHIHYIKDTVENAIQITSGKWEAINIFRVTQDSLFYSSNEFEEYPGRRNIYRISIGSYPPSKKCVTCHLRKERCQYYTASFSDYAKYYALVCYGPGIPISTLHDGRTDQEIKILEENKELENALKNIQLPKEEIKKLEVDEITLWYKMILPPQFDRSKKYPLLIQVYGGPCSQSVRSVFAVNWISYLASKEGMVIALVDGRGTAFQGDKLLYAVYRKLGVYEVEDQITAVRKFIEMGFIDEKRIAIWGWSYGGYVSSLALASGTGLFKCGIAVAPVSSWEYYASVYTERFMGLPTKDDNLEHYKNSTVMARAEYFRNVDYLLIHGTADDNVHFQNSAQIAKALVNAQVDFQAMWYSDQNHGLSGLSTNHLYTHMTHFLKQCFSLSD

rhPREP = molecular target: T2, rhPREP (Homo sapiens, UniProt P48147); test: Probe cleavage by recombinant human PREP; format: biochemical; settings: probe 5 μM, enzyme 0.1 μg/ml, read 480/530 nm
T2 sequence (P48147 1-710): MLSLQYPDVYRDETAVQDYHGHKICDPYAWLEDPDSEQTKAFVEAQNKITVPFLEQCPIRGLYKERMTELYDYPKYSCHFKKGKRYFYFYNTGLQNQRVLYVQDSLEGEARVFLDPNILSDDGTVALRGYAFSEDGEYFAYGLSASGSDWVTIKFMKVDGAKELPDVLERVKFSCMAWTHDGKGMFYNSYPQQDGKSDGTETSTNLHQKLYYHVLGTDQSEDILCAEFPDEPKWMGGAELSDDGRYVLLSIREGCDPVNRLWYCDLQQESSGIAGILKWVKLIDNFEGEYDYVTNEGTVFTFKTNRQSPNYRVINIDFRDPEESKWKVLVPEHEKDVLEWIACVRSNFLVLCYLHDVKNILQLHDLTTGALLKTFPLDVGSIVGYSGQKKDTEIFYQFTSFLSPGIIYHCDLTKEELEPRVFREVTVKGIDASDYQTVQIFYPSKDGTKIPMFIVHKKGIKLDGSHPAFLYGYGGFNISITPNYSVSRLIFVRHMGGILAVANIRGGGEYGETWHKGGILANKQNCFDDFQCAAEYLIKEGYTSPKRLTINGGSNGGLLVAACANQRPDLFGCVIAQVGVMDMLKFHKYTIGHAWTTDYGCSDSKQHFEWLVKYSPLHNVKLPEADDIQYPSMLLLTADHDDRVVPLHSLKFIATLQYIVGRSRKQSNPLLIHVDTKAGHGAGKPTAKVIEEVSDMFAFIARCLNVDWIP

[1] = test system: activated neutrophil lysate; test: Assessment on activated neutrophil lysate; settings: data not shown
rhDPPIV = rhDPPIV (Homo sapiens, UniProt P27487); test: Probe cleavage by recombinant human DPPIV (exopeptidase activity); format: biochemical; settings: probe 5 μM, enzyme 0.1 μg/ml, read 480/530 nm
FAP = molecular target: T3, FAP (Homo sapiens, UniProt Q12884); settings: Bainbridge et al; cited from earlier work
T3 sequence (Q12884 24-760 limits assumed): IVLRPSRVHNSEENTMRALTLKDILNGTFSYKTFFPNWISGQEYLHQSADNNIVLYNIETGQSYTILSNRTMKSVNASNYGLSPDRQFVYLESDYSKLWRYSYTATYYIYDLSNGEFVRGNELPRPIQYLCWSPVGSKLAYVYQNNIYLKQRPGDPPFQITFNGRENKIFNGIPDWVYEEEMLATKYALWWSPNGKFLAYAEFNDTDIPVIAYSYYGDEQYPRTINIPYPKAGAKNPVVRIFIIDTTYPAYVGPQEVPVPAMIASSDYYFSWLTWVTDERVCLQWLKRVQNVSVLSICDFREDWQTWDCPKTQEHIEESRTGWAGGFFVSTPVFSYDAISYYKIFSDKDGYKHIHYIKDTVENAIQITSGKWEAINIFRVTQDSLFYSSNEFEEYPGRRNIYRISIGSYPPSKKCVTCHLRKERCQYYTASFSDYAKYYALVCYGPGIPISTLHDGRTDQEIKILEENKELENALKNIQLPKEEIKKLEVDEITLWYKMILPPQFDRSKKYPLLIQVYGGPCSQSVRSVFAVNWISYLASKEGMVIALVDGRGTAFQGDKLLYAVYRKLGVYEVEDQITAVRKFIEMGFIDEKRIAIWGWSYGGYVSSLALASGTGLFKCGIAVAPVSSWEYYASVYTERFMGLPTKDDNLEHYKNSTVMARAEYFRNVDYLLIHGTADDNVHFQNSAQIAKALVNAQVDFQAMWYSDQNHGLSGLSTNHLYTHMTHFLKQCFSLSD

rhDPPIV, sequence (P27487 whole entry): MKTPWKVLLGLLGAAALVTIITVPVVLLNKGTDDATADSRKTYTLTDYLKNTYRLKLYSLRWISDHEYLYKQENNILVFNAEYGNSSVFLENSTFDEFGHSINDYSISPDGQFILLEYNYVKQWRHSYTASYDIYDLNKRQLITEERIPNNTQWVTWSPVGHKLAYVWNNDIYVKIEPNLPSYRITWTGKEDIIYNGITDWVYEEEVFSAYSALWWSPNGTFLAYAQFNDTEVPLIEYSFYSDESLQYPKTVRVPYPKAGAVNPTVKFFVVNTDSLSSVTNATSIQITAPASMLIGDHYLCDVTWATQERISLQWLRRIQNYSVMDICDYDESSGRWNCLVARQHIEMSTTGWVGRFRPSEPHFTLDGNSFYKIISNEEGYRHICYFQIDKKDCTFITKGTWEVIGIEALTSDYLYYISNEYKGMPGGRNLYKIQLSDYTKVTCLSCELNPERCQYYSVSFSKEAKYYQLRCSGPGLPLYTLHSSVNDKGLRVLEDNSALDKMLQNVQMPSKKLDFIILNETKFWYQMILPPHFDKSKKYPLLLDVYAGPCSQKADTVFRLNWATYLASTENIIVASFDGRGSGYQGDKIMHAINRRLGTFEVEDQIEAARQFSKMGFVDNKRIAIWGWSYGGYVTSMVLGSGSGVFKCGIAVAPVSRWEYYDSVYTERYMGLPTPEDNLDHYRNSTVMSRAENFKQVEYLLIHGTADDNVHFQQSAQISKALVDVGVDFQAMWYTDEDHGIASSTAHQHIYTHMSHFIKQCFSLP

Row | signal (relative fluorescence intensity) with rhFAP (rhFAP; comparison between probe iterations) | FAP specificity (over PREP) (rhFAP; from recombinant enzyme assessment) | cleavage by rhPREP (rhPREP) | cleavage by rhPREP (rhPREP; listed as FAP-sp) | cleavage by rhDPPIV (exopeptidase activity) (rhDPPIV) | Substance | MALDI-TOF analysis of probe after activated neutrophil lysate [1] | specificity over PREP (FAP)
1 | improved signal characteristics | FAP specificity | no cleavage | no rhPREP cleavage | no cleavage | Lys(MethylRed)-Val-(D)Ser-Pro-Ser-Gln-Gly-Lys(5-FAM)-[Peg2-(D)Lys]3-NH2 [FAP-sP, reference compound] | all FAP-sP probe was cleaved | –
2 | – | – | – | – | – | VsPSQG | – | specificity over PREP
